B1: SWI/SNF complex subunit SMARCC1 (Mus musculus), P97496 (parent)
chain: MAATAGGGPGAAAGAVGAGGAAAASGLAVYRRKDGGPASKFWESPDTVSQLDSVRVWLGKHYKKYVHADAPTNKTLAGLVVQLLQFQEDAFGKHVTNPAFTKLPAKCFMDFKAGGTLCHILGAAYKYKNEQGWRRFDLQNPSRMDRNVEMFMNIEKTLVQNNCLTRPNIYLIPDIDLKLANKLKDIIKRHQGTFTDEKSKASHHIYPYPSSQEDEEWLRPVMRRDKQVLVHWGFYPDSYDTWVHSNDVDAEIEDAPIPEKPWKVHVKWILDTDVFNEWMNEEDYEVDENRKPVSFRQRISTKNEEPVRSPERRDRKASANSRKRKPSPSPPPPTATESRKKSGKKGQASLYGKRRSQKEEDEQEDLTKDMEDPTPVPNIEEVVLPKNVNPKKDSENTPVKGGTVADLDEQDEEAVTTGGKEDEDPSKGDPSRSVDPGEDNVTEQTNHIIIPSYASWFDYNCIHVIERRALPEFFNGKNKSKTPEIYLAYRNFMIDTYRLNPQEYLTSTACRRNLTGDVCAVMRVHAFLEQWGLVNYQVDPESRPMAMGPPPTPHFNVLADTPSGLVPLHLRSPQVPAAQQMLNFPEKNKEKPIDLQNFGLRTDIYSKKTLAKSKGASAGREWTEQETLLLLEALEMYKDDWNKVSEHVGSRTQDECILHFLRLPIEDPYLENSDASLGPLAYQPVPFSQSGNPVMSTVAFLASVVDPRVASAAAKAALEEFSRVREEVPLELVEAHVKKVQEAARASGKVDPTYGLESSCIAGTGPDEPEKLEGSEEEKMETDPDGQQPEKAENKVENESDEGDKIQDRENEKNTEKEQDSDVSEDVKPEEKENEENKELTDTCKERESDAGKKKVEHEISEGNVATAAAAALASAATKAKHLAAVEERKIKSLVALLVETQMKKLEIKLRHFEELETIMDREKEALEQQRQQLLTERQNFHMEQLKYAELRARQQMEQQQQHGQTPQQAHQHTGGPGMAPLGATGHPGMMPHQQPPPYPLMHHQMPPPHPPQPGQIPGPGSMMPGQPMPGRMIPAVAANIHPTGSGPTPPGMPPMPGNILGPRVPLTAPNGMYPPPPQQQQPPPPADGVPPPPAPGPPASATP

Variants of: B1
Settings: with snf5_mouse Smarcb1, Q9Z0H3
Chain of snf5_mouse Smarcb1, Q9Z0H3 (Q9Z0H3 whole entry): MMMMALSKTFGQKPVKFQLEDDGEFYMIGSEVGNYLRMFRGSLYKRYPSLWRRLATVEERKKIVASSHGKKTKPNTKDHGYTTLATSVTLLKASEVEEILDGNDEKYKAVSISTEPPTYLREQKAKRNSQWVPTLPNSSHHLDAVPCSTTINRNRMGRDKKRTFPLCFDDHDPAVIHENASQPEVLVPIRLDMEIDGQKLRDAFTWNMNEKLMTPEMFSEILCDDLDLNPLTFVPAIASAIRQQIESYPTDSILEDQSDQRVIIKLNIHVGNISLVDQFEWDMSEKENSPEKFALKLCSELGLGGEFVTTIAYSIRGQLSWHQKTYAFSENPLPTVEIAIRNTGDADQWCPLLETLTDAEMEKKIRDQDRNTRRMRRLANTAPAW

| Variant | effect of a mutation on the interaction |
| --- | --- |
| L533A | decreasing interaction |
| L533A;N535A | disrupting interaction |
| N535A | decreasing interaction |

Variants of: B1
Settings: with snf5_mouse Smarcb1, Q9Z0H3
Remark: another data set of the same source

| Variant | effect of a mutation on the interaction |
| --- | --- |
| L533A;N535A | disrupting interaction strength |

Source: IntAct's records for PubMed 17255092
